What follows are sequences tested on MS2 coat protein (assay: apparent KD of MS2 coat protein, switch OFF state (with FMN for OFF switches, without FMN for ON switches); designed switch direction (-1 OFF switch, 1 ON switch): 1; higher = weaker reporter binding). Settings: FMN input: 0 or 200 uM; Eterna round: R93 (includes R88 designs).
Method in brief: (§1)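 Titrations with SNAP-549-labelled MS2 coat protein ran in twofold steps from 0.7 or 1.5 nM to 3 µM, each step taking 0.8–1.5 h at the start and 10–20 min toward the end. The targets were designed RNA switches transcribed on-chip from Illumina sequencing clusters, held in 100 mM Tris-HCl pH 7.5, 80 mM KCl, 4 mM MgCl2, without or with constant ligand. Apparent KD was taken per design as the median of normalised cluster binding-curve fits.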

Sequence | apparent KD of MS2 coat protein [nM]
AUUAUUAUUACGCAGGAUAUCGAGGUUUUUACAUGAGGAUCACCCAUGUUUUUUUUUUUAUAUUACGAGAAGGGCGAUAUUAUUA [salish99-SS2-01] | 21.9
AAAAGACAUGAGGAUCACCCAUGUCAAAACAUAGGAGGAUAUGUCUGGAAAAAAGACUGGACAGAAGGCCUUUGUC [SS1 - 59] | 18.9

The sequences below were run on MS2 coat protein (assay: apparent KD of MS2 coat protein, switch OFF state (with FMN for OFF switches, without FMN for ON switches); designed switch direction (-1 OFF switch, 1 ON switch): -1; higher = weaker reporter binding). Settings: FMN input: 0 or 200 uM; Eterna round: R93 (includes R88 designs).
Method in brief: as §1

Sequence | apparent KD of MS2 coat protein [nM]
AAAAAGUCAGGAUAUGCGAAGGCGUCUGAUAGACGAGGCUAGCAGAAGGGACAUGAGGAUCACCCAUGUGGAAG [Mat - Exclusion 4 - Eli mod - D89] | 121
AGGAGACAUGAGGAUCACCCAUGUUAGGAUAUGAACGAAAAUAAAUAAAAAUAAAAGUUCAGAAGGAACGAAAA [66%, Wbt, 9] | 45.2
AACAGUACAGGAUAUACAUGAGGAUCACCCAUGUGAAAAUUAAGUGGAAAACCACAAGGUAGAAGGGUACUGGA [Mat - Exclusion 3 - Eli mod - D63] | 78.7
AACAGUACAGGAUAUACAUGAGGAUCACCCAUGUGGGAAUUAAGUGGCGUACCACAAAGUAGAAGGGUACUGGA [Moding Maslow revisited (73)] | 172
AAAAAACAUGAGGAUCACCCAUGUCAGGAUAUCUGGAGAAACGGAAAGAAAAAGAAACGGAGAAGGGACAUAAA [Starryjess mod] | 28.5
UAAAAACAUGAGGAUCACCCAUGUGAGGAUAUGUGAAAAAAAAAAAAAAAAAAAACAAGCAGAAGGCACAAAAA [JR_Exc001_Sub020] | 584
AAAAUGAAAGGAUAUACAUGAGGAUCACCCAUGUUCCAGAACAGGAGUACAAGCGAGUGUAGAAGGUUCAGCAA [Ercesois] | 42.7
AAAACGGUAGGAUAUACGAUUGGGAACUAGACCGAGAAACCACAUGAGGAUCACCCAUGUAGAAGGGCCAAAAA [Ex2 Malc#13] | 36.2
AAACCACAUGAGGAUCACCCAUGUCAGGAUAUGAACGAAAAUAAAUAAAAAUAAAAGUUCAGAAGGGACGAAAA [66%, Wbt, 15] | 37.2
AAAAAGGUAGGAUAUACGAAAAAAAAGGGUAGAAAAAAAACACAUGAGGAUCACCCAUGUAGAAGGACCAAAAA [Ex 2 sub 1] | 77.4
AACAAGACAGGAUAUACAUGAGGAUCACCCAUGUGAGAAUAAAGUAGCGUAACACAAAGUAGAAGGGUCAUGGA [Ruby 7] | 57.6
AAGAAAGCAGGAUAUACAUGAGGAUCACCCAUGUAAAAGAAAGAGGGAAAAGAGAAAAGUAGAAGGGCUAAGAA [Cleopatra IV] | 33.8
ACUAUACGAGGAUAUGCUGUCAACACUAAGGAAUUCGUAUGACAUGAGGAUCACCCAUGUAGAAGGCGUAUACU [JR_Exc002_Sub510] | 27.7
GAAAAGUGAGGAUAUACAUGAGGAUCACCCAUGUGUAUAAAAAAAUACACAAAAGAAAGUAGAAGGCACUAAAA [Mat - Exclusion 3 - Mayanna mod - D111] | 65.9
AAAAAUUGAGGAUAUACGAACAUGUCGAAAGACGUGAAGGGACAUGAGGAUCACCCAUGUAGAAGGCGAAAAAA [Mat - Exclusion 2 - JL mod - D68] | 20.7
AAGAAGUGAGGAUAUCGAAGACUGUCGAAAAGACAGUCGAACGAGAAGGCACAUGAGGAUCACCCAUGUGAGAA [Marsurpial 65% 1] | 55.6
AAGAAGAUAGGAUAUACAAGAAAGAAAGAAAAGAAAAGAAAACAUGAGGAUCACCCAUGUAGAAGGAUCUAGAA [EteRNA is fun!] | 15.9
AAGAACUGAGGAUAUACAUAAUAAAAGAAAAGAAACAAAGAACAUGAGGAUCACCCAUGUAGAAGGCGGAAGAA [Menwadjre Sihathor] | 20.7
ACAUGUACAGGAUAUACAUGGAAAAAAAAAAAAAAAAAACUACAUGAGGAUCACCCAUGUAGAAGGGUACAUGA [Ex2 Design 193: Random 12B] | 25.7
AGAAAGUCAGGAUAUGCAGAAAAAAAAACGAAAAAAAAACUGCAGAAGGGACAUGAGGAUCACCCAUGUUAAGA [Mat - Exclusion 4 - Mayanna - D130] | 49
AGCUAGUCAGGAUAUACAAACAUGUCGAAAGACGUGAAGGGACAUGAGGAUCACCCAUGUAGAAGGGACUAGCA [Mod of Janderson's WEB Mod v.2] | 273

Sequence | apparent KD of MS2 coat protein [nM]
AAGAAGUCAGGAUAUGCCAGAGAUCACGAAAGUGACUAAGGGCAGAAGGGACAUGAGGAUCACCCAUGUAAAGA [Opal 5] | 62.1
GGGUGGCGAGGAUAUACAUGAGGAUCACCCAUGUGAGAGAAAAAAGUGAGAAAGAAAAGUAGAAGGCGCUGCCG [salish99-ex3-56] | 329
CUCUAGUGAGGAUAUACAAGAAAAGAAAAGAAAGAAAAGAAGUAGAAGGCACAUGAGGAUCACCCAUGUAAGAA [EteRNA is fun!] | 30.2
AAGAAGUCAGGAUAUACAUGAGGAUCACCCAUGUAAAAGAAAGAAAGGGAAAAGAAAAGUAGAAGGGACAAGAA [Usermaatre-akhenamun Ramesses VIII] | 25.5
AAACUACUAGGAUAUGCAGAAAGGGUGUAUCCUUAAACUCCACAUGAGGAUCACCCAUGUAGAAGGAGUAAUCG [Dilaquis] | 46.4
AAGAACCAAGGAUAUACAUGAGGAUCACCCAUGUAAAAGAAAGAAAGGGAAAAGAAAAGUAGAAGGUGGAAGAA [Takelot I] | 32.8
AAGAAGUGAGGAUAUGCAAAAGAAAAGAAAAGAAAAGAAAAGCAGAAGGCACAUGAGGAUCACCCAUGUAAGAA [Petubastis III] | 28.9
AACAGCACAGGAUAUACAUGAGGAUCACCCAUGUGAGAAUUAAGUGGCGUACCACAAAGUAGAAGGGUGCUGGA [Mat - Exclusion 3 - JL mod - D39] | 203
AAAAAUGGAGGAUAUACAUGAGGAUCACCCAUGUGUAACAAAACAAAACACAAAAAAAGUAGAAGGCCAAAAAA [Gilly Gone Silly 5 - Jieux - Exclusion 3] | 20.4
AACAGGACAGGAUAUACAUGAGGAUCACCCAUGUGAAGAUUAAGAAGAAAACCACAAAGUAGAAGGGUCCUGGA [Ruby 94] | 79.2
CUCAAGUUAGGAUAUAGAAGAAAAGAAGAGAAAGAAAAGAACUAGAAGGAACAUGAGGAUCACCCAUGUAAGAA [EteRNA is fun!] | 20.5
AAAUAGCAAGGAUAUACAUGAGGAUCACCCAUGUAAGGAUGGAAAGUAAUAGAAGAAAGUAGAAGGUGCAAAUA [Ex 3 Tesla 4] | 36
AACGAACAUGAGGAUCACCCAUGUCAGGAUAUGCGAAGAACGAUCGAACAAACGAUAAGCAGAAGGGACAGAGA [Amethyst 98] | 50
AAAAAGCGAGGAUAUACAUAGCUAAGACGUGUGAGCGAAAAACAUGAGGAUCACCCAUGUAGAAGGCGCAAAAA [Exclusion2-03] | 16.9
AAAAGCACAGGAUAUACGGGAUUAUGACGAAAGUCAUAAAAACAUGAGGAUCACCCAUGUAGAAGGGUGCAAAA [Mod of Meechl's... 64% 2] | 248
AAAAACGUAGGAUAUACAUGAAAAAAAAAAAAAAAAAAAAGACAUGAGGAUCACCCAUGUAGAAGGGCGAAAAA [water's exclusion 2] | 76.8
AAAUAGCAAGGAUAUACAUGAGGAUCACCCAUGUGAAAAAGGUAUGGAAUAGAAUAGAGUAGAAGGUGCAAAUA [Mod of Ex 3 Tesla 8 - Jieux - Exclusion 3] | 35.7
CUCUAGUCAGGAUAUACAAGAAAAGAAGAGAAAGAAAAGAAGUAGAAGGGACAUGAGGAUCACCCAUGUAAGAA [EteRNA is fun!] | 48.2
GAAAAGGUAGGAUAUACGAAAAAAAAGGGUAAAAAAUAAAAACAUGAGGAUCACCCAUGUAGAAGGACCAAAAG [Mat - Exclusion 2 - Tesla mod - D40] | 55.3
CGCAAACAUGAGGAUCACCCAUGUGAGGAUAUGUGAGCACGAGAAAGAUAAAGUGAGCACAGAAGGCACAAGCG [JR_Exclusion1_Sub6] | 27.3

— the supplement of paper PMC9170038
